Assay results reported in patent US20240343781A1 (TRUSTEES OF COLUMBIA UNIVERSITY IN THE CITY OF NEW YORK, published 2024).

B1: engineered monoclonal antibody 10-40 (antibody, V domains shown)
VH: QLQLQESGPGLVKPSETLSLTCTVSGGSISSSNFYWGWIRQPPGKGLEWIASITYSGRTFYNPSLKSRVAISVDTSKNQFSLKLSSVTAADTAVYYCARTFPSYYDRSGYHYLNYGMDVWGQGTTVTVSS
VL: NFMLTQPHSMSESPGKTVTISCTRSSGSIASNYVQWYQQRPGSSPTTVIYEDNQRPSGVPDRFSGSIDSSSNSASLTISGLKTEDEADYYCQSYDSSSWVFGGGTKLTVL
B2: engineered monoclonal antibody 11-11 (antibody, V domains shown)
VH: QVQLQESGPGLVKPSQTLSLTCTVSGGSISSGGYYWSWIRQHPGKGLEWIGYIYYSGSTYYNPSLKSRVTISVDTSKNQFSLKVSSVTAADTAVYYCASSNYYDGSGYNLLESYGMDVWGQGTSVTVSS
VL: QSVLTQPPSVSGAPGQRVTISCTGSSSNIGAGYDVHWYQQLPGTAPKLLIYGNSNRPSGVPDRFSGSRSGTSASLAITGLQAEDEADYYCQSYDSSLSGSWVFGGGTKVTVL

Biological target: SARS-COV spike on pseudovirus (SARS-CoV, UniProt P59594 14-1255)
Test: cell-based or functional assay

Binder | IC50, neutralization of pseudoviruses [µg/mL]
B1 | 0.019
B2 | 0.025
